assay: yeast display, Sf9 membrane polyspecificity reagent, FACS + sequencing; frameworks hold sequencing errors
Procedure, shortened: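 Sorting gates, low and high (top ~1%), were placed on anti-HA fluorescence to track expression and on streptavidin fluorescence to track reagent binding. A clone's polyreactivity label is taken from the gate it came out of. The reagent was 10% biotinylated, detergent-solubilized Sf9 membrane, applied for 1 hour at 4 °C to galactose-induced yeast display cells.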

Sequence | polyreactivity (PSR sort gate)
QVKLVESGGGLVQAGGSLRLSCAASGLTFDHNVMGWYRPAPGKERELVAAISRSGSSTYYADSVKGRFTISRDNAKNTVYLQMNSLKPEDTAVYYCAAARSRYSYATGFDYWGQGTQVTVSS | high polyreactivity
QVKLVESGGGLVQAGGSLRLSCAASGLTYLYTMGWSRQAPGKERELVAAITRSGRTYYADSVKGRFTISRDNAKNTVYLQMNSLKPEDTAVYYCATRTGYQQPDGRYYYWGQGTQVTVSS | high polyreactivity
QVKLVESGGGLVQAGGSLRLSCAASGRIFLWYAMGWYRQEPGKERELVAAISSNGGSTRYAHSVKGRFTISRDNAKNTVYLQMNSLKPEDTAVYYCNADVHWNRYPYGGNGYGYWGQGTQVTVSS | low polyreactivity
QVKLVESGGGLVQAGGSLRLSCAASGRIFYGYTMVWYRQAPGKERELVAAISSSGGSTYYADSVKGRFTISRDNAKNTVYLQMISLKPEDTAVYYCAAYVPYSPYHVEFNYWGQGTQVTVSS | high polyreactivity
QVKLVESGGGLVQAGGSLRLSCAASGRTFGIYAMGWYRQAPGKERELVAAITWSGDSTYYADSVKGRFTISRDNAKNTVYLQINSLKPEDTAVYYCAADYVGVTSVRYDYWGQGTQVTVSS | low polyreactivity
QVKLVESGGGLVQAGGSLRLSCAASGSIFLGNAMGWYRQAPGKERELVATISSSDGSTDYADSVKGRFTISRDNAKNTVYLQMNSLKPEDTEVYYCNADYSYGTTLDYWGQGSQVTVSS | low polyreactivity
QVKLVESGGGLVQAGGSLRLSCAASGSIFLSYAMGWYRQAPGKDRELVAAISGGGGSTYYADSVKGRFTISRDNAKNTVYLQMNSLKPEDTAVYYCAADYYYGDALSPYYPHWDFYYWGQGTQVTVSS | low polyreactivity
QVKLVESGGGLVQAGGSLRLSCAASGSIFWGYDMGWYRQAPGKERELVARISYSGGSTSYADSVKGRFTISRDNAKNTVYLQMNSLKPEDTAVFYCAADEGGFWWTYPYDSLGQGTQVTVSS | low polyreactivity
QVKLVESGGGLVQAGGSLRLSCAASGSTVVFNTMGWYRQAPGKERELVAAISTGDSTKYADSVKGRFTISRDNAKITVYLQMNSLKPVDTAVDYCAADTQDRTYYGWRQVGGYDYWGQGTQVTVSS | low polyreactivity
QVKLVESGGGLVQAGGSLRLSCADSGSIFWTYAIVWYRHAPGKERELVAAINSSDGTYYADSVKGRFTISRDNAKNTVYLQMNSLKPEDTAVYYCNADRDALFGYDYDYWGQGTQVTVSS | low polyreactivity
QVKLVESGGGLVQAGGSLRLSCAESGRIFHHYAMGWYRQAPGKERELVAAITGGGSTYYADSVKVRFTISRYNAKITVYLQMNSLKPEDTAVYYCAAPPFGYYEVGYDSWGQGSQVTVSS | low polyreactivity
QVKLVESGGGLVQAGGSLRLSFPASGRTFKYYAMGLYRQEPGKDRELVAAISWSGGSTYYADSVKGRFTISRDNEKNTVYLQMNSLKPEDTAVYYCAAVRHYHGTWYDYWGQGTQVTVSS | high polyreactivity
QVKLVESGGGLVQAGGSLRLTCDASGRIFSSYAMGWYRQAPGKERELVAAIRSSGDRTYYADSVKGRFTISRDNAKNTVYLQMNSLKPEDTAVYYCAARAVLKSWAYYYWGQGTQVTVSS | high polyreactivity
QVKLVESGGGLVQAGGSLSLSCAASARIFSAYAMGWYRQAPGKEMELVAAISYSGGSTYYADSVKGRFTIARDNAKNTVYLQMNSLKPEDTADYYCAADTVYGYQWGQGTQVTVSS | low polyreactivity
QVKLVESGGGLVQAVGSLRLSCAPSGFTLGSYAMGCYRQAPGKESELVAAITYSGSRTYYADSVKGRFTISRDNAKNTVYLQMNSLKPEDTAVYYCAAVTHYGFDYWGQGTQVTVSS | high polyreactivity
QVKLVETGGGLVQAGGSLRLSCAASGRTFTPYTMGRYRQAPGKEREFVAAITFRGGSTYYADSVKGRFTISRDIAKNTVYLQMNSLKPEDTEVYFCNARGHGGWGTSMYYWGHGTQVTVSS | high polyreactivity
QVKRVESGGGIVQAGGSLRLSCAASGSTFHKNVMGWYRQEPGKERELVAAISIIGVRTYYADSVKGRFTISRDNAKNTVYLQINSLKQVDTAVYYCNTDTQNRRGSGRGFWGEGTQVTVSS | high polyreactivity
QVKRVESGGGLVQAGGSLRLSCAASGSIVVTNAMGWYRQAPGKERELVAAITSSGSTDYADSVKGRFTISRDNAKNTVSLLMKILKREDTAVYYCNADVATGIFYGYDSWGQGTQVTVSS | low polyreactivity
QVLLQESGGGLVLAGGSLRLGCAASGTISPAYYMGRYHQAPGKEREFVAAITYGTNTYYADSVKGRFTISRDNAKYTVYLQMHSLKPEDTAVYYCSATAGYNGAHDYWGQGTQVTVSS | low polyreactivity
QVLLQESGGGLVQAGGSLRLSCAAIGTISTDIRMGWYRLAPGKEREFVASIDGCSTTYYADSVTGRFTISRDNAKNTVYLQMNSLKPEDTAMFYCAAREATEFYLYYWGQGTQVTVSS | low polyreactivity
QVLLQESGGRLVQAGGSLRLGCEPSGTISPAYYMGRYHQAPGKEREFVAAITYGTNTYYADSVKGRCTISRDIAKNTVYLQMNSLKPEDSAVYYCSATAGYNGAHDYCGQGTQVTVSS | low polyreactivity
QVLLVESGGGIVQAGGSLRLSCAASGIIFYVNAMGWYRQAPGKERELVAAITFGGDSTYYADSVKGRFTISRDNAKNTVYLQMNSLKPEDTAVYYCATDGDPAYPEMEYWGQGTQVTVSS | low polyreactivity

Sequence | polyreactivity (PSR sort gate)
QVLLVESGGGLVQAGGSLRLSCAASGFIFFKYAMGWYRQAPGKEREFVAAISKSGTSTYYADSVKGRFTISRDNAKNTVYLQLNILKPEDTAVYDCAARYGRGSAYPEYDYWGQGTQVTVSS | high polyreactivity
QVLLVESGGGLVQAGGSLRLSCAASGFIFPYNAMGWYRQAPGKERELVASISGSGRTNYADSVKGRFTISRDNAKNTVYLQMNSLKPEDTAVYYCNKRWYVQKGYDYWGQGTQVTVSS | high polyreactivity
QVLLVESGGGLVQAGGSLRLSCAASGRTFYWYAMGWYRQAPGKERELVAGISSGGGTYYADSVKGRFTISRDNAKNTVYLQMNSLKPEDTAVYYCAAASENIWVWQEYIEYDYWGQGTQVTVSS | low polyreactivity
QVLLVESGGGLVQAGGSLRLSCAASGSIFWGYDMGWYRQAPGKDSELVAVISWSTTSTYFADSVKGRFTISRDNANNTVYLLMNSLKAEDTAVYYCNSEAYQYWEFDYWGQGTQVTVSS | low polyreactivity
QVLLVESGGGLVQAGGSLRLSCAASGSTFNYNAMGWYRQAPGKERELVAVITSGGRTNYADSVKGRFTISRDNAKNTVYLQMNSLKPEDTAVYSCNAEHVSYHFNLKYSGESWGQGTQVTVSS | low polyreactivity
QVLLVESGGGLVQAGGSLRLSCAASGSTLYDYAMGWYRQAPGKETELVAAINGSGGSTYYADSVKGRFTISRDNAKNTVYLQMNSLKPEDTAVYYCNAKRYGFFYWQGDYCGQGTQVTVSS | low polyreactivity
QVLLVESGGGLVQAGGSLRLSCAASRSIFEVNPMGWYRQAPGKERELVAAISCSGGSTYYADSVKGRFTISRDNAKNTVYLQMNSLKPEDTAVYYCAARQAGYSGRKLYYWGQGTQVTVSS | low polyreactivity
QVLLVESGGGLVQAGGSLRLSCAATARNFKYNTMGWYRQAPGKERELVAAISISGGSTYYADSVKGRFRISRDNSKNTVYLQMNSLKPEDTAVYYCNADTTYLSDYVTFAYWGQVTQVTVSS | low polyreactivity
QVLLVESGGGLVQAGGSLRLSCAATGSIFVGYVMGWYRQAPGKERELVAAISRSGGRTYYADSVKGRFTISRDNAKNTVYLQMNSLKPEDTAVYYCAVRHRFYTAGYDYWGQGTQVTVSS | low polyreactivity
QVLLVESGGGLVQAGGTLRLSCADSGFTFVTYGMGWYRQEPGKERELVARISSSSTNYADSVKGRFTISRDNAKNTVYLQMKSLKPEDTEVYYCAAVHYRWWYRSAYDFWGQGTQVTVSS | low polyreactivity
QVLLVESGVGLVQAGGSLRLSCAASGRIFKLYAMGWYRQAPGKERELVAAITRRGGSTSYADSVKGRFTISRDNAKNTVYLQMNSLKPEDTAVYYCAASYTGRTVVQGYEYWGQGTQVTVSS | high polyreactivity
QVLLVESGVGLVQAGGSLRLSCASSGFTFYRNAMGWYRQAPGKERELVASISRSGGSTYYADSVKGRFTISRDNAKNTVYLQMNSLKPEDTAVYYCAADLWWIYPHKYYYWGQGTQVTVSS | high polyreactivity
QVNLVESGGGLVQAGGSLRLSCAASGIIFIAYAMRWYRQAPGKERELVADISIGGSTNYADSVKGRFTISRDNAKNTVYLEMNSLKPEDTAVYYCNAGGGFYGSTVEHDYWGKGTQVTVSS | low polyreactivity
QVPIVESGGGLVQAGGSLRLSCAAYGIIFRLNAMGWNTQAPGKERELVAAITRRGGTTYYADSVKGRFTISRDNAKNTVYLQMNSLKPEDTAVYYCNTFYYWQYDWGQGTQVTESS | high polyreactivity
QVPLVESGGGLGQAGGSLRLSCGASGSIFSLYAMGWSRLAPGKEREVVASLTWRGDSTYYADSVTGRFTISRDNAKNTVYLQMNSLKPEDTAVYNCNAVYYYAEPTSFGGYDYWGQGTQVTVSS | low polyreactivity
QVPLVESGGGLLQAGGSLRISCAASGSIFTRNAMGWYRPAPGKERELVAAISRRGVSTYYADSVKGRFTISRDNAKNTVYLQMNSLKPEDTAVYYCTARSPMYRTTYDYWGQGTQVTVSS | high polyreactivity
QVPLVESGGGLVEAGGSLRLSCDASGGIFRGYAKGWYRQAPGKERDLVAAISRGGGSTYYADSVKGRFTISRDNAKNTVYLQLNSLKPEDTAVYYCAAIYTRVYDPVTEFYYWGQGTQVTVSS | high polyreactivity
QVPLVESGGGLVLAGGSLRLSCAASGSTVDDNAMGWYRQAPGKVRELVAGISTNGGSTSYADSVKGRITISRDNAKNTVYLQMNSRKPEHTAVYYSAKGLYVQFDYWGQGTQVTVSS | low polyreactivity
QVPLVESGGGLVQAGGSLRLSCAASGFTFFSHAMGWYSQAPGKDRELVAAITTNGGSTYYADSVKGRFTISRDNAKNTVYVQITSLKPEDTAVYYCAADYSLPWSWLYEYWGQGTQVTVSS | low polyreactivity
QVPLVESGGGLVQAGGSLRLSCAASGFTFTPYGMGWYRPAPGKERELVAAITWNGGRTYYADSVKGRFTISRDNAKNTVYLQMNSLKPEDTAVYYCAAVAWSWQKRGYWGQGTQVTVSS | high polyreactivity
QVPLVESGGGLVQAGGSLRLSCAASGRIFGYYARGWYRQAPGKDRELVASIRRGTRTNYADSVKGRFTISRDNAKNTVYLQMNSLKPEDTAVYYGAATRFQFTTTPWYDYWGQGTQVTVSS | high polyreactivity
